Data from patent US20230348573A1 (KEIO UNIVERSITY, published 2023).

B1: Ab354 (antibody, V domains shown)
VH: QVQLVQSGAEVKKPGASVTVSCKASGFLFTGYYMHWVRQAPGQGLEWMGWINPNSGASNYTRKFQGRVTMTRDTSISATYMKLSRLTSDDTAVYYCARDLAFSMVRGALDYWGQGTLVTVSS
VL: QLVLTQPPSASGSPGQSVTISCTGTSSDVGGYNYVSWYQHHPGKAPKLMIYEVSKRPSGVPDRFSGSKSGNTASLTVSGLQAEDEADYYCNSYAGNNNWVFGTGTKVTVL
B2: Ab496 (antibody, V domains shown)
VH: EVQLVQSGPEVKKPGTSVKVSCKASGFIFTNSAVQWVRQARGQRLEWIGWIVVGSGNPNYAQKFQERVTITRDRSTSTAYMELSSLTSEDTAVYYCAAFPYYYDNSGSGPWGQGTLVTVSS
VL: DIQLTQSPSSLSASVGDRVTITCQASQDIRNNLNWYQQIPGKAPKLLIYDASNLETGVPSRFSGSASGTDFTFTISSLQPEDVATYYCQQYANLPPFTFGPGTKVDIK
B3: Ab188 (antibody, V domains shown)
VH: EVQLVESGGGLVQPGGSLRLSCAASGFTFINYKMNWVRQAPGKGLEWVSYISSGSDAIYYADSVKGRFTISRDNAKNSLYLQMNSLRDEDTALYYCARGGGYNYGECMDVWGQGTTVTVSS
VL: not shown
B4: Ab287 (antibody, V domains shown)
VH: QVQLVQSGAEVKKPGSSVKVSCKASGDTFSSYAISWVRQAPGQGLEWMGRIILIFGVANYAQKFQGRVTITADKSTSTAYMELSSLRSEDTAVYYCARGGFYYDSSGYHLDYWGQGTLVTVSS
VL: EIVLTQSPGTLSLSPGERATLSCRPSQSVSSSYLAWYQQRPGQAPRLLIYGASSRATGIPDRFSGSGSGTDFTLTISRLEPEDFAVYYCHQYGSSPRTFGQGTKVEIK
B5: Ab326 (antibody, V domains shown)
VH: EVQLVESGGGVVQPGRSLRLSCAASGFTFSHYPMHWVRQAPGRGLEWVAVISYDGSNQHYVDSVKGRFTISRDNSKNTLYLQMNSLRAEDTAVYFCASLITMIRGVPDYWGQGTLVTVSS
VL: DIQMTQSPSSLSASVGDRVTITCRASQSISNYLNWYQQKPGKAPNLLIFAASSLQSGVPSRFSGSGSGTEFTLTISSLQPEDFAAYYCLQTYSTPRTFGQGTRLEIK
B6: Ab308 (antibody, V domains shown)
VH: EVQLVQSGAEVKKPGSSVKVSCKASGGTFSSYAINWVRQAPGQGLEWMGRIIPMFGIANYAQKFQGRVTITANKSTSTAYMDLSSLRSEDTAVYYCARSQYYYDSSGYYFDYWGQGTLVTVSS
VL: not shown
B7: Ab159 (antibody, V domains shown)
VH: QVQLVESGGGLVKPGGSLRLSCAASGFTFNNAWMSWVRQAPGKGLEWVGRIKSKTDGGTTDYAAPVKGRFTFSRDDSKNTLYLQMSSLKTEDTALYYCTTADYDILTGTPASPYWGQGTLVTVSS
VL: DIQMTQSPSSLSASVGDRVTITCRASQSITNYLNWYQQKPGKAPKFLIYAASSLQGGVPSRFRGSGSGTDFTLTISSLQPEDFATYYCQQTYSTLWTFGQGTKVEIK
B8: Ab336 (antibody, V domains shown)
VH: QVQLQQSGPGLVKPSETLSLTCTVSGGSISSYYWTWIRQPPGKGLEWIAYISYSGSTNYNPSLRSRVTISVDTSKNQFSLKLSSVTAADTAVYYCARDYYYDNSGYPDSYYGMDVWGQGTTVTVSS
VL: DIQLTQSPSTLSASVGDRVTITCRASQRISSWLAWYQQKPGKAPKLLIYKASTLQSGVPSRFSGSGSGTEFTLTISSLQPDDFATYYCQQYNSFSWTFGQGTKVEIK
B9: Ab445 (antibody, V domains shown)
VH: EVQLVESGGGVVQPGTSPRLSCAASGFTFSNSGMHWVRQAPGKGLEWVAVIWYDGSKKYYVDSVKGRFTISRDNSKNTLYLQMNSLRAEDTAVYYCARDGTVAVRGVMNPFFDYWGQGTLVTVSS
VL: DIQLTQSPSSLSASVGDRVTITCQASQDISNYLNWYQQIPGKAPKLLIYDASNLETGVPSRFSGSGSGTDFTFTISSLQPEDIATYYCQQYDNLPYTFGQGTKLEIK

Target: T1, RBD derived from SARS-CoV-2 (Wuhan strain) (SARS-CoV-2 (Wuhan strain), UniProt P0DTC2 319-541)
T1 construct: domain: RBD
Test: RBD beads, antibody 0.25 µg/mL, then labelled ACE2, flow cytometry

Binder | fluorescence of ACE2 protein
B1 | 409
B2 | 2580
B3 | 1570
B4 | 689
B5 | 516
B6 | 1390
B7 | 486
B8 | 1110
B9 | 2200

Target: spike protein of SARS-CoV-2 (Wuhan strain) on pseudovirus (SARS-CoV-2 (Wuhan strain), UniProt P0DTC2 14-1254)
Test: cell-based or functional assay

Binder | IC50 of pseudovirus infection (luciferase)
B1 | 55.9 ng/mL
B2 | 3.62 ng/mL
B3 | 119 ng/mL
B5 | 31 ng/mL
B7 | 8.52 ng/mL

Target: T1, RBD derived from SARS-CoV-2 (Wuhan …)
Test: RBD beads, antibody 1 µg/mL, then labelled ACE2, flow cytometry

Binder | fluorescence of ACE2 protein
B1 | 64.8
B2 | 129
B4 | 105
B5 | 39.9
B6 | 432
B7 | 114
B8 | 402
B9 | 326

Target: T2, full-length spike protein of SARS-CoV-2 (Wuhan strain) (SARS-CoV-2 (Wuhan strain), UniProt P0DTC2 14-1273)
T2 construct: whole, on cells; Expressed in 293T cells
Test: ACE2 competition, spike on 293T cells, antibody 4 µg/mL

Binder | binding amount (%) of ACE2 protein
B1 | 0.3%
B2 | 1.8%
B3 | 1.1%
B4 | 1.5%
B5 | 0.2%
B6 | 3.5%
B7 | 0.5%
B8 | 5.3%
B9 | 0.4%

Target: T1, RBD derived from SARS-CoV-2 (Wuhan …)
Test: BLI (Octet), RBD of the Wuhan strain

Binder | Kd
B1 | 0.0726 nM
B5 | 0.0514 nM
B6 | 6.62 nM
B7 | 1.24 nM
B8 | 2.35 nM
B9 | 0.0593 nM

Target: T1, RBD derived from SARS-CoV-2 (Wuhan …)
Test: RBD beads, antibody 4 µg/mL, then labelled ACE2, flow cytometry

Binder | fluorescence of ACE2 protein
B1 | 42.9
B2 | 41.7
B3 | 148
B4 | 32.6
B5 | 38.4
B6 | 59
B7 | 78.3
B8 | 106
B9 | 142

Target: T2, full-length spike protein of SARS-CoV-2 …
Test: ACE2 competition, 293T cells, antibody 4 µg/mL

Binder | ACE2 binding (no antibody = 100)
B1 | 0.3
B2 | 1.8
B3 | 2.1
B4 | 0.5
B5 | 0.2
B6 | 4.1
B8 | 1
B9 | 0.4
